In paper PMC5384220, “Highly selective inhibition of histone demethylases by de novo macrocyclic peptides” (Nature Communications, 2017):

How the values were obtained:
Assay in all cases: cell-based or functional assay
[1] = biological target: T1, N-terminally Hexa-His-tagged KDM4A (residues 1–359) (human, UniProt O75164 1-359)
T1 sequence (looked up): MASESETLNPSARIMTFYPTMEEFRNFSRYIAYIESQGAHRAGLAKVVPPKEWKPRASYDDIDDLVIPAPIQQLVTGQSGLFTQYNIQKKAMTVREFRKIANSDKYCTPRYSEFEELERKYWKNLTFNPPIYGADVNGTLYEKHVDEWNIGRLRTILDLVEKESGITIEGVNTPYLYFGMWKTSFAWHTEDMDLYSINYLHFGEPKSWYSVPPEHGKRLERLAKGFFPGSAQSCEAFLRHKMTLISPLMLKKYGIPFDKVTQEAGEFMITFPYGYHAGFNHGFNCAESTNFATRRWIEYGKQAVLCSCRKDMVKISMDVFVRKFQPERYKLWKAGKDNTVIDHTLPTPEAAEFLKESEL

KDM4B = biological target: T2, KDM4B (human, UniProt O94953 1-1096)
T2 sequence (looked up): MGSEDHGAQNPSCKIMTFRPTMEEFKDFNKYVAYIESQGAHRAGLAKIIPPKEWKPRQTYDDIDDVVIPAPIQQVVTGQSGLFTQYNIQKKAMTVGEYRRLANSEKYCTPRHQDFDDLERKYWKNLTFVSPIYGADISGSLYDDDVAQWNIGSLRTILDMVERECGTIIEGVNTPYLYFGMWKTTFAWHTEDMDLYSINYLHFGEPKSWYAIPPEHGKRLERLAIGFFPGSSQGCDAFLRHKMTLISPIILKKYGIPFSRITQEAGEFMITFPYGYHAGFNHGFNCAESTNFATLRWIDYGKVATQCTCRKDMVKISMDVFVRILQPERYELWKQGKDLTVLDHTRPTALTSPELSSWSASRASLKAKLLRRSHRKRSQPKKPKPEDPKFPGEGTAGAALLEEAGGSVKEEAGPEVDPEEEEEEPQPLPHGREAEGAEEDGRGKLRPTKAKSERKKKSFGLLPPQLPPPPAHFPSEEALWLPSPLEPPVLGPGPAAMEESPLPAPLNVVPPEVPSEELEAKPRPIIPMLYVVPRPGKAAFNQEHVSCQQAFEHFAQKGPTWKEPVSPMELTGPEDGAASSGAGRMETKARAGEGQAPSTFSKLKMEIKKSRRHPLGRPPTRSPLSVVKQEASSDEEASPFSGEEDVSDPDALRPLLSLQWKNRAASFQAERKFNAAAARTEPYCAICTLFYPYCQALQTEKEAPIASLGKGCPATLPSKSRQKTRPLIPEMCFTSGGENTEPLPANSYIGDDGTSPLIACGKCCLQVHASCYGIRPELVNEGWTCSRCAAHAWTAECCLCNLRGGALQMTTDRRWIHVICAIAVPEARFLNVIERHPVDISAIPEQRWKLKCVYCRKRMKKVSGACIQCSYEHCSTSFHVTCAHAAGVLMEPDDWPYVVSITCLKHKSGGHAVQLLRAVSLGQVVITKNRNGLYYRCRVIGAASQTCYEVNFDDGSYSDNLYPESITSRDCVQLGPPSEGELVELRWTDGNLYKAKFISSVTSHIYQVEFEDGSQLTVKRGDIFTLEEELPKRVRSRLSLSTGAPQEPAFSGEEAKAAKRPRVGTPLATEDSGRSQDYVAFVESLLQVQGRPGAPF

KDM5C = KDM5C (human, UniProt P41229 1-1560)
Sequence of KDM5C (P41229 whole entry): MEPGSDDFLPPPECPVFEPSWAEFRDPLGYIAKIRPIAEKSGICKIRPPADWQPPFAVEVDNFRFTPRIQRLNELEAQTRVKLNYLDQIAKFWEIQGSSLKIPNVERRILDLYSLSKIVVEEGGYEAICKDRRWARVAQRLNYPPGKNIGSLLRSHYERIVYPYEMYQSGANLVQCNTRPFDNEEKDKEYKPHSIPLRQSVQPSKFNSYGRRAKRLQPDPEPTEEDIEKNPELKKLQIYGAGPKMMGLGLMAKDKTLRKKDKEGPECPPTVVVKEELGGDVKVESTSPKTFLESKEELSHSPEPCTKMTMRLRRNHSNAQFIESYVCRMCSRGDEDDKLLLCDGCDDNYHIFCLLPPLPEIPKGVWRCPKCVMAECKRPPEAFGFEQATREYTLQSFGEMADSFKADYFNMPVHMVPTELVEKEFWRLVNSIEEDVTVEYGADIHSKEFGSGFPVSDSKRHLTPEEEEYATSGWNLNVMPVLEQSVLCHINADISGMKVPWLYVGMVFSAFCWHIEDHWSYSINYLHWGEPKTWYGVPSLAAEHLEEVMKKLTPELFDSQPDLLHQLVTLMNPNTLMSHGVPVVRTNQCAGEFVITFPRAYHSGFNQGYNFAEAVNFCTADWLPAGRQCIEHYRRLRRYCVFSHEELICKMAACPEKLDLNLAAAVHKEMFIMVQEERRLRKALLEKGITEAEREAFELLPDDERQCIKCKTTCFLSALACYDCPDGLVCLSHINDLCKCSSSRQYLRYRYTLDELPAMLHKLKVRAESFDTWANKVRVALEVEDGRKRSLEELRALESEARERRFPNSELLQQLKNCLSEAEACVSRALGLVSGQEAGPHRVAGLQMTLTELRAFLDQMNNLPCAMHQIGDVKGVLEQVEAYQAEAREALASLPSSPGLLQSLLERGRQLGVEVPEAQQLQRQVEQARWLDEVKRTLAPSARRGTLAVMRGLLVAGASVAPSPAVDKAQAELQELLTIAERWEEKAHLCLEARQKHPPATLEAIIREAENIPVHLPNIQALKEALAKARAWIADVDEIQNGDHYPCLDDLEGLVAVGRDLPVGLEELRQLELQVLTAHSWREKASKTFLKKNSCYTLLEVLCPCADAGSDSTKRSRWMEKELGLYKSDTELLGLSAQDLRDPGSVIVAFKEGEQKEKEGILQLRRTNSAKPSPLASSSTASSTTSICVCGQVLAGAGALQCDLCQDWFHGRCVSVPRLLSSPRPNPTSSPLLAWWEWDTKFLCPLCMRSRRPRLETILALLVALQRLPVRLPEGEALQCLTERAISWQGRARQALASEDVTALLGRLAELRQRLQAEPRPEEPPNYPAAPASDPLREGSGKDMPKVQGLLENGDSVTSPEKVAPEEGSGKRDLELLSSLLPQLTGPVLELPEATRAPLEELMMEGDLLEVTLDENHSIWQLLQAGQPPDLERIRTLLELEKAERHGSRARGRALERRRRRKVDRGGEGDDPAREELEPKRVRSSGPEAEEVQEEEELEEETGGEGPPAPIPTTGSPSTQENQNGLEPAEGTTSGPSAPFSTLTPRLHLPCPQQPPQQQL

KDM1A = KDM1A (human, UniProt O60341 1-852)
[2] = biological target: prolyl hydroxylase domain 2 (UniProt Q9GZT9 1-426)
Sequence of prolyl hydroxylase domain 2 (Q9GZT9 whole entry, the tested form may be a part): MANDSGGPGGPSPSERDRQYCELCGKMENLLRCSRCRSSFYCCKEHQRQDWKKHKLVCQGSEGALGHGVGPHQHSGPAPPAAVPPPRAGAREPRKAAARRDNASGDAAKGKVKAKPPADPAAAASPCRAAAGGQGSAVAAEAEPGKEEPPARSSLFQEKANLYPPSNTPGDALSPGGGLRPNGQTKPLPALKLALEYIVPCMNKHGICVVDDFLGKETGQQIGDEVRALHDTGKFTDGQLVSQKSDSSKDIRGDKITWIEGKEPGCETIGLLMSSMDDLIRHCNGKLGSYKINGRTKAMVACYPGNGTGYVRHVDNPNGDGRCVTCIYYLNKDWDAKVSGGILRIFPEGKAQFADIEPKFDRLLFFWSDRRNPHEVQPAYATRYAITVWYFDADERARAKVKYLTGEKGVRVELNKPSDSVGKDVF

factor inhibiting HIF = factor inhibiting HIF (UniProt Q9NWT6 1-349)
Sequence of factor inhibiting HIF (Q9NWT6 whole entry): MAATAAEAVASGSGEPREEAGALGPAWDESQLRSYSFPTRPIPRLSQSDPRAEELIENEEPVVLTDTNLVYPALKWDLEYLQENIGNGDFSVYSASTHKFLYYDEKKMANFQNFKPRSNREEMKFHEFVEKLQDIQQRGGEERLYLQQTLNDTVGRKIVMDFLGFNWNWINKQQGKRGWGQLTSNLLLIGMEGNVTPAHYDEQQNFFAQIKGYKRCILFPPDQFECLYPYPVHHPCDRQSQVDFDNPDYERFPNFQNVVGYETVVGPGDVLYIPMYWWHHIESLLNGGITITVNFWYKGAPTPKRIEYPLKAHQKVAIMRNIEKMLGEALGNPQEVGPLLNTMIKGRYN

KDM4C = biological target: T3, KDM4C (human, UniProt Q9H3R0 1-1056)
T3 sequence (looked up): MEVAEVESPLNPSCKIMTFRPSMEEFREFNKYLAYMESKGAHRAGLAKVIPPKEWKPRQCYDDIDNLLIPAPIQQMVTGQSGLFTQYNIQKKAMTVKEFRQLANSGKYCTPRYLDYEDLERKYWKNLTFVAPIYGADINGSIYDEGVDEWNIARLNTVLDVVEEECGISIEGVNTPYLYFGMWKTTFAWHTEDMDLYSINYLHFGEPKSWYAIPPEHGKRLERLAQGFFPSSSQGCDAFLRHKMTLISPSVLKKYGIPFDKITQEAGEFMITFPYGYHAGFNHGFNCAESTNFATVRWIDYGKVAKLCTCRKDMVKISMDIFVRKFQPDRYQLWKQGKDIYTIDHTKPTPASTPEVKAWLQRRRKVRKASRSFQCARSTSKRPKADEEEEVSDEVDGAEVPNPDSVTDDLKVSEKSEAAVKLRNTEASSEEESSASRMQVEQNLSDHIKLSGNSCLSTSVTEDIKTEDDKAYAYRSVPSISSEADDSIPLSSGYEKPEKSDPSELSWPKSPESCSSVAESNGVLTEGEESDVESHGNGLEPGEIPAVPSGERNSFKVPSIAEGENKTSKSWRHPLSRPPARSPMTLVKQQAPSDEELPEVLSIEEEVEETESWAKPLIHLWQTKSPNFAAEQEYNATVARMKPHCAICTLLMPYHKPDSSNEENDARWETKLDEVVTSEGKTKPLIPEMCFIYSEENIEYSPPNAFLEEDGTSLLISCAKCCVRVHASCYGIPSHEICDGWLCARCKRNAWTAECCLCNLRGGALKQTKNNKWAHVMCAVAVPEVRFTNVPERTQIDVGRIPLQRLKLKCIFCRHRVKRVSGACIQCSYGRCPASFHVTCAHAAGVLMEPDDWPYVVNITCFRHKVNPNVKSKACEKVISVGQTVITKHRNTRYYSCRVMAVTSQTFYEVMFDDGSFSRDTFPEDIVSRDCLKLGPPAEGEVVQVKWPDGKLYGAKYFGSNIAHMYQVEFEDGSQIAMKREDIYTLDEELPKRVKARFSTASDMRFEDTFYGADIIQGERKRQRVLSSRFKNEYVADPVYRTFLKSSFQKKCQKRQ

B1: CP4 (peptide)
chain: YLKSRRSGLTWIPC
modifications: not fully specified; N-terminal L-Tyr (^LTyr library, N-chloroacetyl-L-Tyr) cyclised by a thioether to a downstream cysteine
IC50 of inhibition of demethylase activity (AlphaScreen activity assay) [1]: 0.02 µM
IC50 of inhibition of demethylase activity (AlphaScreen activity assay) (KDM4B): 0.006 µM
IC50 of inhibition of demethylase activity (AlphaScreen activity assay) (KDM5C): > 10 µM
IC50 of inhibition of KDM1A/LSD1 (fluorescence-based assay) (KDM1A): > 10 µM
IC50 of inhibition of PHD2 (MALDI–TOF MS assay) [2]: > 1000 µM
IC50 of inhibition of FIH (MALDI–TOF MS assay) (factor inhibiting HIF): > 1000 µM
IC50 of inhibition of demethylase activity (AlphaScreen activity assay) (KDM4C): 0.017 µM
